Conditions: Aspergillus oryzae (strain ATCC 42149 / RIB 40), Thermal, DSC, NaCl 80 mM, reversible: yes, whole UniProt chain shown
[1] = pH 6, Sodium cacodylate-HCl 10 mM
[2] = pH 6.5, Sodium cacodylate-HCl 10 mM
[3] = pH 7, Sodium cacodylate-HCl 10 mM
[4] = pH 8.6, Sodium borate-HCl 10 mM

B1: Guanyl-specific ribonuclease T1 wild type, P00651 (protein)
chain: MMYSKLLTLTTLLLPTALALPSLVERACDYTCGSNCYSSSDVSTAQAAGYQLHEDGETVGSNSYPHKYNNYEGFDFSVSSPYYEWPILSSGDVYSGGSPGADRVVFNENNQLAGVITHTGASGNNFVECT
Tm (pH 5, Sodium acetate 10 mM): 58.8 °C
heat capacity change of unfolding (pH 5, Sodium acetate 10 mM): 0.89 kcal/mol/K
unfolding enthalpy (calorimetric) (pH 5, Sodium acetate 10 mM): 112 kcal/mol
unfolding enthalpy (van 't Hoff) (pH 5, Sodium acetate 10 mM): 115 kcal/mol
Tm [1]: 54.1 °C
heat capacity change of unfolding [1]: 1.28 kcal/mol/K
unfolding enthalpy (calorimetric) [1]: 111 kcal/mol
unfolding enthalpy (van 't Hoff) [1]: 110 kcal/mol
Tm [2]: 50.9 °C
heat capacity change of unfolding [2]: 1.23 kcal/mol/K
unfolding enthalpy (calorimetric) [2]: 106 kcal/mol
unfolding enthalpy (van 't Hoff) [2]: 112 kcal/mol
Tm [3]: 48.8 °C
heat capacity change of unfolding [3]: 1.21 kcal/mol/K
unfolding enthalpy (calorimetric) [3]: 108 kcal/mol
unfolding enthalpy (van 't Hoff) [3]: 108 kcal/mol
Tm [4]: 43.4 °C
heat capacity change of unfolding [4]: 1.2 kcal/mol/K
unfolding enthalpy (calorimetric) [4]: 94.7 kcal/mol
unfolding enthalpy (van 't Hoff) [4]: 109 kcal/mol
Tm (pH 9.7, glycine-NaOH 10 mM): 40.7 °C
heat capacity change of unfolding (pH 9.7, glycine-NaOH 10 mM): 1.22 kcal/mol/K
unfolding enthalpy (calorimetric) (pH 9.7, glycine-NaOH 10 mM): 79.7 kcal/mol
unfolding enthalpy (van 't Hoff) (pH 9.7, glycine-NaOH 10 mM): 102 kcal/mol

Source: FireProtDB (doi:10.1021/bi00177a023)
